The results in this text go back to the RNAGym collection of RNA variant scans (doi:10.1073/pnas.2313332121).

Sequences and labels used below:
B1: TPR 5TU (parent)
chain: GGAUCUUCUCGAUCUAACAAAAAAGACAAAUCUGCCACAAAGCUUGAGAGCAUCUUCGGAUGCAGAGGCGGCAGCCUUCGGUGGCGCGAUAGCGCCAACGUUCUCAACUAUGACACGCAAAACGCGUGCUCCGUUGAAUGGAGUUUAUCAUG

Variants at the floor of the assay were thinned out. Bounds are passed on as bounds.

The series covers variants of B1. The series can be described thus: polymerase ribozyme fitness, log enrichment relative to wild type (log ratio); higher = more active; in vitro selection for triplet polymerase activity. The method, boiled down:
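Only genotypes with ≥10 input reads and ≥1 read per output were kept after Illumina sequencing of input and output libraries. These libraries were PCR-built, transcribed mutants of each subunit of a heterodimeric triplet polymerase ribozyme, each put through one triplicate in vitro selection round with frozen incubation at −7 °C, gel excision of extended constructs, streptavidin-bead capture and RT-PCR. Fitness is a logarithmic ratio of genotype enrichment to wild-type enrichment, from inverse-variance-weighted replicate averages, with the logarithm in base 2.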
As for G25U G84A, the “polymerase ribozyme fitness (log ratio)” value is -3.07.

On to A26U C118G, for which the “polymerase ribozyme fitness (log ratio)” value was -2.12.

With G25U C76G G92A A119U U145A C149A U151G, the “polymerase ribozyme fitness (log ratio)” value was no more than -4.2.

Take A26U C36G U134A G143U U144C: the “polymerase ribozyme fitness (log ratio)” value is no more than -4.2.

A26U A30U G48A: the “polymerase ribozyme fitness (log ratio)” value is no more than -4.2.

G25U A52G U56A A60G G133C: the “polymerase ribozyme fitness (log ratio)” value is -4.06.

For the variant C27U A41C C95U C125U, the “polymerase ribozyme fitness (log ratio)” value is -2.83.

Consider C27A G50A C54U C95A, for which the “polymerase ribozyme fitness (log ratio)” value was no more than -4.2.

Turning to A26C C32G G34C U44A A107G C131U U139C U145C, the “polymerase ribozyme fitness (log ratio)” value is no more than -4.2.

Take G25A U56A: the “polymerase ribozyme fitness (log ratio)” value was -1.67.

Consider A26G G88C A91C C93A C116U, for which the “polymerase ribozyme fitness (log ratio)” value was no more than -4.2.

Consider C27U C32A G46U A47C U53A C87G, for which the “polymerase ribozyme fitness (log ratio)” value was no more than -4.2.

In the case of C27U A120G C125A, the “polymerase ribozyme fitness (log ratio)” value is -1.81.

A26U A52U U135A: the “polymerase ribozyme fitness (log ratio)” value is -2.83.

For A24U G84U, the “polymerase ribozyme fitness (log ratio)” value is -2.26.

On to G25U C38U, for which the “polymerase ribozyme fitness (log ratio)” value is -1.98.

In the case of C27G C85G G88A G100C U148G, the “polymerase ribozyme fitness (log ratio)” value was no more than -4.2.

Take A26U U82A A106C: the “polymerase ribozyme fitness (log ratio)” value was -3.93.

Consider G25C C27U U45C G71U U82A G83A G92U, for which the “polymerase ribozyme fitness (log ratio)” value was no more than -4.2.

G25C A28G G80C G83A: the “polymerase ribozyme fitness (log ratio)” value is -4.19.

As to A24U A49C C54U C75G C85A A122U U144C A147C, the “polymerase ribozyme fitness (log ratio)” value was no more than -4.2.

Take C27U A49G: the “polymerase ribozyme fitness (log ratio)” value was -2.49.

Regarding C27A C85A, the “polymerase ribozyme fitness (log ratio)” value was no more than -4.2.

Turning to A24U U148C, the “polymerase ribozyme fitness (log ratio)” value was -2.14.

As for A26C A91G G136C, the “polymerase ribozyme fitness (log ratio)” value was no more than -4.2.

Take A26U G84C U145G: the “polymerase ribozyme fitness (log ratio)” value was no more than -4.2.

For C27G C85A U90G, the “polymerase ribozyme fitness (log ratio)” value is no more than -4.2.

Turning to A26C C105U, the “polymerase ribozyme fitness (log ratio)” value is -2.13.

With A26G U55G C87A A115U C118U C149G, the “polymerase ribozyme fitness (log ratio)” value is no more than -4.2.

With C27G C76A, the “polymerase ribozyme fitness (log ratio)” value was -3.63.

For C27G A37U A64C G88C A91C A120G A122U U148G, the “polymerase ribozyme fitness (log ratio)” value was -4.09.

G25A A28U G94A U102A A137C: the “polymerase ribozyme fitness (log ratio)” value was no more than -4.2.

As to A24U C35U C75U, the “polymerase ribozyme fitness (log ratio)” value was -2.19.

On to A26C C85A G94C, for which the “polymerase ribozyme fitness (log ratio)” value is -1.83.

On to A26U A73U G74U C96A, for which the “polymerase ribozyme fitness (log ratio)” value was no more than -4.2.

For the variant C27G C57U A91U C95A C131G U134G G140A, the “polymerase ribozyme fitness (log ratio)” value was no more than -4.2.

Take A26C C87U A122G A142G: the “polymerase ribozyme fitness (log ratio)” value was -3.94.

In the case of G25U C103G, the “polymerase ribozyme fitness (log ratio)” value is -3.2.

Take A26G C27U G46U G50U C75A: the “polymerase ribozyme fitness (log ratio)” value was no more than -4.2.

Regarding C27U A41C G81U C96A, the “polymerase ribozyme fitness (log ratio)” value was -2.31.

For the variant A26C G86A C99U G141C, the “polymerase ribozyme fitness (log ratio)” value is -3.84.

As for A26U A28U G81C U90A, the “polymerase ribozyme fitness (log ratio)” value was no more than -4.2.

Regarding A24U A121U G124U, the “polymerase ribozyme fitness (log ratio)” value was -1.16.

Take C27U C51U G83A: the “polymerase ribozyme fitness (log ratio)” value is -2.56.

As for G25C A41C A47C G83U A89U A121C C125G A142C C149G A150U G152A, the “polymerase ribozyme fitness (log ratio)” value is no more than -4.2.

A26C C51U A66G U77A C149G: the “polymerase ribozyme fitness (log ratio)” value is no more than -4.2.

C27U G48A C69A C96A A121G: the “polymerase ribozyme fitness (log ratio)” value was no more than -4.2.

Turning to A26U U53A, the “polymerase ribozyme fitness (log ratio)” value is -1.58.

With A24U A28U A39C G59C A60U A66G G68C C79G G81A C116G C125U, the “polymerase ribozyme fitness (log ratio)” value is no more than -4.2.

For A24U C93U C118U A121G, the “polymerase ribozyme fitness (log ratio)” value was -1.37.

With C27U G58A G59C C99U U102G A120C C125U, the “polymerase ribozyme fitness (log ratio)” value was no more than -4.2.

Consider A24U A60G C79G C96G U109C, for which the “polymerase ribozyme fitness (log ratio)” value is no more than -4.2.

For A26U U55G G86C C96U A97C C99A U102G, the “polymerase ribozyme fitness (log ratio)” value was no more than -4.2.

As for A26U A122G C131A, the “polymerase ribozyme fitness (log ratio)” value is -3.89.

Regarding A24U A52C, the “polymerase ribozyme fitness (log ratio)” value is -0.457.

Turning to A24U U31A C63G C76A, the “polymerase ribozyme fitness (log ratio)” value is -3.16.

With A26U A97U A119G, the “polymerase ribozyme fitness (log ratio)” value was -2.34.

For C27A C38U G81A G86U A110U, the “polymerase ribozyme fitness (log ratio)” value was no more than -4.2.

As to C27U A28U C76U U78G C93G A119G, the “polymerase ribozyme fitness (log ratio)” value was no more than -4.2.

For the variant A26C G50C G71U A73G, the “polymerase ribozyme fitness (log ratio)” value was no more than -4.2.

For A26C A137G U144A, the “polymerase ribozyme fitness (log ratio)” value was -4.13.

For G25C A26C, the “polymerase ribozyme fitness (log ratio)” value was -2.94.

Take G25U U56A G84U C95A C96U A119C G141U U148C C149A: the “polymerase ribozyme fitness (log ratio)” value is no more than -4.2.

With C27G A39G G83A G143U, the “polymerase ribozyme fitness (log ratio)” value was no more than -4.2.

As for A26G C27U A47G C54A U56G G86A, the “polymerase ribozyme fitness (log ratio)” value was no more than -4.2.

For the variant A26U U56A U101G A115G, the “polymerase ribozyme fitness (log ratio)” value is -3.42.

Regarding C27A U56A, the “polymerase ribozyme fitness (log ratio)” value was -3.7.

A26U G92A: the “polymerase ribozyme fitness (log ratio)” value is -3.86.

For the variant C27U U53A C85G, the “polymerase ribozyme fitness (log ratio)” value was -3.88.

In the case of A24U A113C, the “polymerase ribozyme fitness (log ratio)” value was -3.05.

For the variant A24U G48U G83A, the “polymerase ribozyme fitness (log ratio)” value was -1.25.

For A26U A52C C96A, the “polymerase ribozyme fitness (log ratio)” value was -3.2.

C27G G58C G86A C105A U144A: the “polymerase ribozyme fitness (log ratio)” value was no more than -4.2.

Regarding C27U A39U U53A C93U, the “polymerase ribozyme fitness (log ratio)” value was no more than -4.2.

Take G25A C27G A30C C32G G68A C87A A107U: the “polymerase ribozyme fitness (log ratio)” value was no more than -4.2.

With A26G C32G A64G C103A, the “polymerase ribozyme fitness (log ratio)” value was no more than -4.2.

Consider C27G C36G C85U, for which the “polymerase ribozyme fitness (log ratio)” value is no more than -4.2.

As for C27U G65C A66C A73U C93A C108G C129G, the “polymerase ribozyme fitness (log ratio)” value is -3.81.

As for A24U C36A U44A C72G C95A A119G G140C, the “polymerase ribozyme fitness (log ratio)” value is no more than -4.2.

As for G25U A49C G88U A97G, the “polymerase ribozyme fitness (log ratio)” value is no more than -4.2.

Take A24U U77A G92A C125G: the “polymerase ribozyme fitness (log ratio)” value is no more than -4.2.

For C27U A37U C125U, the “polymerase ribozyme fitness (log ratio)” value is -3.74.

With A24U U33G U56A A91G C103A, the “polymerase ribozyme fitness (log ratio)” value was no more than -4.2.

Regarding C27G C54A, the “polymerase ribozyme fitness (log ratio)” value is -3.98.
